Data: patent publication US8062638 (Chugai, dated 2011)
Changes are numbered by the printed parent chain.

B1: humanized H chain version b / chimeric L chain antibody (antibody, V domains shown)
VH: QVQLLESGAVLARPGTSVKISCKASGFNIKDYYMHWVKQRPGQGLEWIGGNDPANGHSMYDPKFQGRVTITADTSTNTAYMELSSLRSEDTAIYYCARDSGYAMDYWGQGTLVTVSS
VL: DIKMTQSPSSMYASLGERVTITCKASQDIKSFLSWYQQKPWKSPKTLIYYATSLADGVPSRFSGSGSGQDYSLTINNLESDDTATYYCLQHGESPYTFGGGTKLEIK
notes: Expressed from N5KG4P (human IgG4-type)
B2: humanized H chain version d / chimeric L chain antibody (antibody, V domains shown)
VH: B1 VH with T74E, N77S, T91S, I93V, Y95F
VL: B1 VL
notes: as for B1
B3: humanized H chain version e / chimeric L chain antibody (antibody, V domains shown)
VH: B1 VH with T69S, T74E, N77K, T78I, S84N, I93V, Y95F
VL: B1 VL
notes: as for B1
B4: humanized H chain version i / chimeric L chain antibody (antibody, V domains shown)
VH: B1 VH with N77S, A79V, Y80F, I93V
VL: B1 VL
notes: as for B1
B5: humanized H chain version j / chimeric L chain antibody (antibody, V domains shown)
VH: B1 VH with I70F, T76A, S84R, E89A, I93V
VL: B1 VL
notes: as for B1
B6: humanized H chain version c / chimeric L chain antibody (antibody, V domains shown)
VH: QVQLLESGAVLARPGTSVKISCKASGFNIKDYYMHWVKQRPGQGLEWIGGNDPANGHSMYDPKFQGRVTMLVDTSKNQFSLRLSSVTAADTAVYYCARDSGYAMDYWGQGTLVTVSS
VL: B1 VL
notes: as for B1
B7: H chain humanized version b / L chain humanized version b antibody (antibody, V domains shown)
VH: B1 VH
VL: DIQMTQSPSSLSASVGDRVTITCKASQDIKSFLSWYQQKPGKAPKLLIYYATSLADGVPSRFSGSGSGTDYTLTISSLQPEDFATYYCLQHGESPYTFGGGTKVEIK
notes: also called b-b; humanized antibody version b-b
B8: H chain humanized version i / L chain humanized version b2 antibody (antibody, V domains shown)
VH: B1 VH with N77S, A79V, Y80F, I93V
VL: B7 VL with G41E, L46S
notes: also called i-b2; humanized anti-human TF antibody version i-b2
B9: H chain humanized version i / L chain humanized version b antibody (antibody, V domains shown)
VH: B1 VH with N77S, A79V, Y80F, I93V
VL: B7 VL
notes: also called humanized antibody version i-b
B10: humanized H chain version b3 / humanized L chain version b antibody (antibody, V domains shown)
VH: B1 VH with K38R, R40A
VL: B7 VL
notes: Expressed from N5KG4P (human IgG4-type); also called b3-b
B11: humanized H chain version b / humanized L chain version a antibody (antibody, V domains shown)
VH: B1 VH
VL: B7 VL with Y71F
notes: Expressed from N5KG4P (human IgG4-type); also called b-a
B12: humanized H chain version b / humanized L chain version b2 antibody (antibody, V domains shown)
VH: B1 VH
VL: B7 VL with G41E, L46S
notes: Expressed from N5KG4P (human IgG4-type); also called b-b2
B13: humanized H chain version b / humanized L chain version c antibody (antibody, V domains shown)
VH: B1 VH
VL: B7 VL with F83I
notes: Human IgG4-type (N5KG4P series); also called b-c
B14: humanized H chain version d3 / humanized L chain version b antibody (antibody, V domains shown)
VH: B1 VH with K38R, R40A, T74E, N77S, T91S, I93V, Y95F
VL: B7 VL
notes: Expressed from N5KG4P (human IgG4-type); also called d3-b
B15: humanized H chain version d / humanized L chain version b antibody (antibody, V domains shown)
VH: B1 VH with T74E, N77S, T91S, I93V, Y95F
VL: B7 VL
notes: Expressed from N5KG4P (human IgG4-type); also called d-b
B16: humanized H chain version g / humanized L chain version b antibody (antibody, V domains shown)
VH: B1 VH with R67K, V68A, I70L, T74E, T76S, N77S, E82Q, T91S, I93V, Y95S
VL: B7 VL
notes: Expressed from N5KG4P (human IgG4-type); also called g-b
B17: humanized H chain version i / humanized L chain version b1 antibody (antibody, V domains shown)
VH: B1 VH with N77S, A79V, Y80F, I93V
VL: B7 VL with Y36F, A43S, L46T
notes: Expressed from N5KG4P (human IgG4-type); also called i-b1
B18: humanized H chain version j / humanized L chain version b antibody (antibody, V domains shown)
VH: B1 VH with I70F, T76A, S84R, E89A, I93V
VL: B7 VL
notes: Expressed from N5KG4P (human IgG4-type); also called j-b
B19: chimeric H chain / humanized L chain version b antibody (antibody, V domains shown)
VH: EVQLQQSGTNLVRPGALVKLSCKGSGFNIKDYYMHWVKQRPEQGLEWIGGNDPANGHSMYDPKFQGKASITADTSSNTAYLQLSSLTSEDTAVYFCARDSGYAMDYWGQGTSVTVSS
VL: B7 VL
notes: Expressed from N5KG4P (human IgG4-type); also called ch-b
B20: chimeric H chain / humanized L chain version a antibody (antibody, V domains shown)
VH: B19 VH
VL: B7 VL with Y71F
notes: as for B1
B21: chimeric H chain / humanized L chain version b1 antibody (antibody, V domains shown)
VH: B19 VH
VL: B7 VL with Y36F, A43S, L46T
notes: Expressed from N5KG4P (human IgG4-type); also called ch-b1
B22: chimeric H chain / humanized L chain version b2 antibody (antibody, V domains shown)
VH: B19 VH
VL: B7 VL with G41E, L46S
notes: Expressed from N5KG4P (human IgG4-type); also called ch-b2
B23: chimeric H chain / humanized L chain version c antibody (antibody, V domains shown)
VH: B19 VH
VL: B7 VL with F83I
notes: as for B1
B24: chimeric ATR-5 antibody (H chain chimeric/L chain chimeric) (antibody, V domains shown)
VH: B19 VH
VL: B1 VL
notes: Mouse ATR-5 V regions on human C regions; Both IgG1-type (N5KG1(V)) and IgG4-type (N5KG4P) vectors were made; also called ch-ch; chimeric antibody
B25: humanized H chain version a / chimeric L chain antibody (antibody, V domains shown)
VH: QVQLLESGAVLARPGTSVKISCKASGFNIKDYYMHWVKQRPGQGLEWIGGNDPANGHSMYDPKFQGRAKLTAATSASIAYLEFSSLTNEDSAVYYCARDSGYAMDYWGQGTLVTVSS
VL: B1 VL
notes: as for B1
B26: humanized H chain version a / humanized L chain version a antibody (antibody, V domains shown)
VH: B25 VH
VL: B7 VL with Y71F
notes: as for B1

Key:
[1] = target: T1, human tissue factor (TF) on cells (human, UniProt P13726 33-295); assay: cell ELISA on fixed J82 cells expressing TF
T1 construct: also called human TF; the antigen

[2] = target: T1, human tissue factor (TF) on cells; assay: cell ELISA on fixed J82 cells expressing TF; chimeric antibody is the reference

| Binder | binding result [1] | binding result [2] |
| --- | --- | --- |
| B1 | binds | – |
| B2 | binds | – |
| B3 | binds | – |
| B4 | binds | – |
| B5 | binds | – |
| B6 | binds | – |
| B7 | binds | – |
| B8 | binds | – |
| B9 | binds | – |
| B10 | binds | – |
| B11 | binds | – |
| B12 | binds | – |
| B13 | binds | – |
| B14 | binds | – |
| B15 | binds | – |
| B16 | binds | – |
| B17 | binds | – |
| B18 | binds | – |
| B19 | binds | – |
| B20 | binds | – |
| B21 | binds | – |
| B22 | binds | – |
| B23 | binds | – |
| B24 | – | binds |
| B25 | binds | – |
| B26 | binds | – |
